From article PMC3999109, “Dimerization Interface of 3-Hydroxyacyl-CoA Dehydrogenase Tunes the Formation of Its Catalytic Intermediate” (PLoS ONE, 2014)
Numbering of substitutions follows the chain as printed. In names and notes the source's numbering stands.

T1: cHAD (Caenorhabditis elegans, UniProt P34439, Y209A)
T1 construct: gene F54C8.1; C-terminal GST tag cleaved; pEXS-CG vector, E. coli BL21(DE3)
T1 sequence (P34439 1-298 Y209A): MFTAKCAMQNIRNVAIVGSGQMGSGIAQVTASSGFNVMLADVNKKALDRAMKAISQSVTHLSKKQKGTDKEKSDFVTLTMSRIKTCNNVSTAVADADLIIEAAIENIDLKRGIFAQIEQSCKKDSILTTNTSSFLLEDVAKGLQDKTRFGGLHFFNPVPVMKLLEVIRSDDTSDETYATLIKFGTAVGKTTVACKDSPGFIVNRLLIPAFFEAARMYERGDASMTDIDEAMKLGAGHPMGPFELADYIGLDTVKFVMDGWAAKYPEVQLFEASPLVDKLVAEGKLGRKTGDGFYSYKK

T2: cHAD (Caenorhabditis elegans, UniProt P34439)
T2 construct: gene F54C8.1; C-terminal GST tag cleaved; pEXS-CG vector, E. coli BL21(DE3)
T2 sequence (P34439 1-298): T1 sequence (P34439 1-298 Y209A) with A209Y

B1: 3-hydroxyacyl-CoA dehydrogenase from C. elegans, wild type (enzyme, Caenorhabditis elegans)
chain: T1 sequence (P34439 1-298 Y209A) with A209Y
notes: 3-hydroxyacyl-CoA dehydrogenase (cHAD), Caenorhabditis elegans, WormBase WBGene00010035, GenBank CAA80153.1; N-terminal domain 9-194, loop 195-201 and C-terminal domain 202-297 described in the structure; vector pEXS-CG (derived from pET-22b(+)); also called cHAD; wild type cHAD; not shown: GST, C-terminal, cleaved
B2: 3-hydroxyacyl-CoA dehydrogenase from C. elegans, Y209A mutant (enzyme, Caenorhabditis elegans)
chain: T1 sequence (P34439 1-298 Y209A)
notes: 3-hydroxyacyl-CoA dehydrogenase (cHAD), Caenorhabditis elegans, WormBase WBGene00010035, GenBank CAA80153.1; as m1 with Y209A; Made by overlapping PCR from the wild type plasmid, ligated into pEXS-CG (BamHI, EcoRI); also called cHAD Y209A; source: E. coli BL21 (DE3), purified (same procedure as the wild type); not shown: GST, C-terminal, cleaved
B3: 3-hydroxyacyl-CoA dehydrogenase from C. elegans, R204A/Y209A mutant (enzyme, Caenorhabditis elegans)
chain: T1 sequence (P34439 1-298 Y209A) with R204A
notes: 3-hydroxyacyl-CoA dehydrogenase (cHAD), Caenorhabditis elegans, WormBase WBGene00010035, GenBank CAA80153.1; as m1 with R204A and Y209A; Made by overlapping PCR from the wild type plasmid, ligated into pEXS-CG (BamHI, EcoRI); also called cHAD R204A/Y209A; source: E. coli BL21 (DE3), purified (same procedure as the wild type); not shown: GST, C-terminal, cleaved
B4: 3-hydroxyacyl-CoA dehydrogenase from C. elegans, R204A mutant (enzyme, Caenorhabditis elegans)
chain: T1 sequence (P34439 1-298 Y209A) with R204A, A209Y
notes: 3-hydroxyacyl-CoA dehydrogenase (cHAD), Caenorhabditis elegans, WormBase WBGene00010035, GenBank CAA80153.1; as m1 with R204A; Made by overlapping PCR from the wild type plasmid, ligated into pEXS-CG (BamHI, EcoRI); also called cHAD R204A; source: E. coli BL21 (DE3), purified (same procedure as the wild type); not shown: GST, C-terminal, cleaved

Columns and labels:
cHAD [1] = biological target: T1, cHAD; test: Trp-NADH FRET titration, ex […] nm, em […] nm, Hill fit; format: binding; conditions: 10 mM citrate/phosphate pH 7.0, 150 mM NaCl, ambient temperature, 0.58 µM protein, 0-340 µM NADH
cHAD [2] = biological target: T2, cHAD; test: difference absorption spectroscopy of the ternary charge-transfer complex, […] nm; format: binding; conditions: 2 mM NAD+ with 2 mM acetoacetyl-CoA, 0.2 M citrate/phosphate pH 7.0, ambient temperature, 2 mg/ml protein; abortive ternary complex
purified protein = substrate: CC(=O)CC(=O)SCCNC(=O)CCNC(=O)[C@H](O)C(C)(C)COP(=O)(O)OP(=O)(O)OC[C@H]1O[C@@H](n2cnc3c(N)ncnc32)[C@H](O)[C@@H]1OP(=O)(O)O; test: purified protein; format: biochemical, Caenorhabditis elegans; conditions: 100 µM NADH (saturating), 0.1 M citrate/phosphate pH 7.0, 0.1 mM dithiothreitol, 298 K, 23 nM protein, AACoA 30-70 µM, 25.0 °C
[3] = biological target: the molecule itself; test: SEC-MALS; SEC-LS/UV/RI; WTC-030S5 column, 20 mM MES pH 6.0, 100 mM sodium chloride; 100 µg protein injected, 0.5 ml/min
[4] = biological target: the molecule itself; test: cross-linking; EGS, protein:EGS 1:50, on ice 40 min; protein diluted to 2 mg/ml in 0.2 M Na2HPO4, 0.1 M citrate pH 7.0; SDS-PAGE

Molecule | Trp-NADH FRET titration, ex 270 nm, em 460 nm, Hill fit (cHAD [1]) | difference absorption spectroscopy of the ternary charge-transfer complex, 412 n (cHAD [2]) | Km (purified protein) [µM] | Vmax (purified protein) [µmol/min/mg] | kcat (purified protein) [s⁻¹] | kcat/Km (purified protein) [M⁻¹ s⁻¹] | stoichiometry N [3] | binding result [4]
NC(=O)C1=CN([C@@H]2O[C@H](COP(=O)(O)OP(=O)(O)OC[C@H]3O[C@@H](n4cnc5c(N)ncnc54)[C@H](O)[C@@H]3O)[C@@H](O)[C@H]2O)C=CC1 [NADH] | Wild type and Y209A mutant cHAD show exactly the same number of Hill coefficient |  |  |  |  |  |  | 
NC(=O)c1ccc[n+]([C@@H]2O[C@H](COP(=O)(O)OP(=O)(O)OC[C@H]3O[C@@H](n4cnc5c(N)ncnc54)[C@H](O)[C@@H]3O)[C@@H](O)[C@H]2O)c1 [NAD^+] |  | difference spectroscopy of cHAD·NAD^+·AACoA ternary complex |  |  |  |  |  | 
B1 |  |  | 72.0 ± 13.4 | 78 | 45 | 600000 | 2 | 
B2 |  |  | 50.4 ± 11.0 | 30 | 17 | 300000 |  | binds
B3 |  |  | 115.6 ± 24.5 | 18 | 10 | 90000 |  | binds
B4 |  |  | 83.2 ± 9.7 | 48 | 28 | 300000 |  | binds
